Data published in publication PMC5063126.
Ends that are not written are not given here. fluorophore = not defined here

Legend:
TMR-BID BH3 = assay: fluorescence polarisation; fluorescence anisotropy; Bcl-xL titrated into TMR-BID BH3 (5 nM) in sodium phosphate buffer (50 mM, pH 7.5) with sodium chloride (10 mM), 15 °C; fit to the Langmuir isotherm, apparent dissociation constant, at least three independent curves averaged
Bcl-xL = Bcl-xL (UniProt Q07817); assay: not stated; fluorescently labelled peptide with Bcl-xL; data in Table S4

Row | Molecule | Kd (TMR-BID BH3) [nM] | Kd (Bcl-xL) [nM]
1 | Bcl-xL (from UniProt Q07817-1 1-209) (domain or fragment) | 27 | –
2 | DC(fluorophore)AEDIGVNIARHLAQVGDSIDRSI (reading uncertain; also: fluorophore not named) [LOV-BID peptide] | – | 46
